Measurements published in PMC9890643.

Target: apolipoprotein A-1 (ApoA1) (UniProt P02647 25-267)
Test: electrochemical aptasensor

Chain of apolipoprotein A-1 (ApoA1) (P02647 25-267): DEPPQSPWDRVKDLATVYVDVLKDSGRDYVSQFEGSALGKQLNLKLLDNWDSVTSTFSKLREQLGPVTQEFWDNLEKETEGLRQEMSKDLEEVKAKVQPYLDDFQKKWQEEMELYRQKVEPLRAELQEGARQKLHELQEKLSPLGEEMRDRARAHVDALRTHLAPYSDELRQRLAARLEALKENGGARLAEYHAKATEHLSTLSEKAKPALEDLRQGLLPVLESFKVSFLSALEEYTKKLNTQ

CCTCGGCACGTTCTCAGTAGCGCTCGCTGGTCATCCCACA (ssDNA, 5'-thiol-C6) [ApoA1 thiolated aptamer]
binding result: binds
